System: [H][C@@]12COP(=O)(O)O[C@@]1([H])[C@@H](O)[C@H](n1cnc3c(=O)[nH]c(N)nc31)O2
Assay: purified protein
Conditions: […] MgCl2 in the reaction buffer catalytic site

Question: How did the Km turn out when PDE5A (Homo sapiens) was run?
Answer: 3.87 ± 0.12 µM

Reference: PMC9968969
